Laboratory results published in article PMC12121223.

Target: extracellular region of FGFR1 fused to the Fc fragment of human IgG1 (UniProt P11362)
Chain of UniProt P11362 (P11362 22-376): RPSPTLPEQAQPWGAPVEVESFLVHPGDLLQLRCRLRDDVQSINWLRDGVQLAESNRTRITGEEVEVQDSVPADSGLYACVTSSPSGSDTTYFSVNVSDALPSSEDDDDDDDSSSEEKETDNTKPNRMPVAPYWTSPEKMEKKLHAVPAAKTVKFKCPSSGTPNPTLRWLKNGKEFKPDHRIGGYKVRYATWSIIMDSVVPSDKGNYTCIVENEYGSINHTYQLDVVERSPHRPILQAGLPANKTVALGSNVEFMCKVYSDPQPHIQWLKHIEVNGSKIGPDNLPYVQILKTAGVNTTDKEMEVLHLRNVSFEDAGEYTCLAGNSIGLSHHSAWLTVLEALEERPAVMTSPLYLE

cellular uptake of fluorescently labelled FGF1WT into U2OS-R1 cells in the presence of heparin, quantitative confocal microscopy (normalized RSI): 25.2%
Substance: truncated wild-type FGF1 (Met-Ala-FGF1 21-154) (ligand)
